Data published in patent US20230071609A1 (Genentech, published 2023).

T1: APOL1 very C-terminal peptide aa 376-398 (human)
T1 peptide: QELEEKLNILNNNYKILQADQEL

T2: gD-MAD-SRA-ID-GPI (construct d) (human, UniProt O14791 238-398, C-terminal GPI anchor)
T2 sequence: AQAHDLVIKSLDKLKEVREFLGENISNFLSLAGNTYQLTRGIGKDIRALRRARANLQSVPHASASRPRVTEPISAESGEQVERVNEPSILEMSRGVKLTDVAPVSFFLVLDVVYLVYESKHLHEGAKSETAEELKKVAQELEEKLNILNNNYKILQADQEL

T3: iAPOL1-G0 in podocytes (EIK variant, doxycycline-inducible, in APOL1 KO podocytes) (human, UniProt O14791 29-398)
T3 construct: Stably re-expressed untagged APOL1 isoform A in APOL1 KO clone 89401-3; also called iAPOL1-G0 podocytes; iAPOL1 podocytes
T3 chain: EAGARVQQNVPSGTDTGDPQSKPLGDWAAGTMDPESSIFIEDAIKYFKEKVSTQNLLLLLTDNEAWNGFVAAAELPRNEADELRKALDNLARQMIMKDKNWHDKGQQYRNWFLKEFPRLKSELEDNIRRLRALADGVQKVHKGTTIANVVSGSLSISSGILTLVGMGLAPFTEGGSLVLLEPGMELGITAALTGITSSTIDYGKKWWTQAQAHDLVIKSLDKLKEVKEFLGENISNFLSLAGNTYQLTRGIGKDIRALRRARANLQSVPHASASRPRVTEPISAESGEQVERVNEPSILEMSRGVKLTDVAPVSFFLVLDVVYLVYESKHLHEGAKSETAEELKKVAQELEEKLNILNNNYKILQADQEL


Key:
[1] = target: T1, APOL1 very C-terminal peptide aa 376-398; assay: overlapping ~20-mer peptides (SPR, western blot); antibody named in paragraph 192
Procedure: Following three TBST washes, anti-mouse (GE Healthcare NA931V, 1:3000) or anti-rabbit HRP (Jackson 711-036-152, 1:8000) was added as secondary antibody. After 1 h, membranes were washed and protein detected using ECL prime (Amersham RPN2232) exposed to MR film (Kodak). Anti-actin HRP-conjugated antibody (clone 13E5, Cell Signaling Technologies 5125S at 1:5000) or calnexin (Abcam Ab22595 at 1:1000) was used as a loading control. For peptide mapping, 2 μl of 1 mM peptides in DMSO were boiled in 5× sample buffer and loaded on 10% Tris-Glycine gel and run using MES buffer. Cell pellets of Sf9 lysates were lysed in native RIPA (NP-40) lysis buffer and run on 10% Tris-Glycine gels.
A 96×96 array-based SPR imaging system (Carterra USA) was used for epitope mapping of anti-ApoL1 monoclonal antibodies. Briefly, purified monoclonal hybridoma antibodies were diluted at 10 μg/ml in 10 mM sodium acetate buffer pH 4.5. Using amine coupling, antibodies were directly immobilized onto a SPR sensorprism CMD 200M chip (XanTec Bioanalytics, Germany) using a Continuous Flow Microspotter (Carterra, USA) to create an array of antibodies. After coupling, the antibodies were blocked with ethanolamine, and primed with running buffer (10 mM HEPES, pH 7.4, 150 mM NaCl, 3 mM EDTA, and 0.005% Tween 20). Epitope mapping was performed by flowing 100 nM of different peptides of APOL1 across the immobilized anti-APOL1 antibodies on the biosensor chip at 25° C. in a running buffer of 10 mM HEPES, pH 7.4, 150 mM NaCl, 3 mM EDTA, and 0.005% Tween 20. After each flow through of the APOL1 peptide, the chip surface was regenerated using 10 mM glycine, pH 2.0.

[2] = target: T2, gD-MAD-SRA-ID-GPI (construct d); assay: flow cytometry, live CHO cells; 3.7D6 is the representative PFD antibody
Procedure: Stably transfected live (not fixed or permeabilized) CHO cells expressing the gD-iAPOL1-GPI constructs indicated in FIGS. 1A-1E after induction with 5 μg/ml dox for 48 h, showing differential antibody binding at 5 μg/ml. […] White histograms are Alexa488 anti-mouse or anti-rabbit secondaries only; grey histograms are the anti-APOL1 signals. A representative histogram for each category is shown: 3.7D6 for PFD; 3.3A8 for C-terminus of MAD, 3.5H9 for N-terminus of MAD; 3.1C1 for SRA-ID; 3.2D4 for multi-domain; 3.3F7 for conformational and 3.5B10 for FACS-negative (FACS-ve). The prefix 3 in the name of the antibodies denotes murine monoclonals from Method #3 (as shown in Example 1 below); other antibodies (not illustrated here) starting with the number 4 are murine monoclonals derived from mice additionally boosted with SRA-ID protein; and prefix 5-named antibodies are rabbit monoclonals from Method #5 (Table 2A; and Example 2). […] The Sigma polyclonal (HPA018885, raised to aa 263-387) and the Epitomics rabbit monoclonal (EPR2907(2), raised to an undisclosed peptide) are SRA-ID binders. […]
Cells were harvested with 5 mM EDTA in PBS, washed once with growth media and twice with PBS. […] Signals were read in a FACSCalibur3 (Becton Dickinson), with the exception of FIG. 8A and FIG. 14, which used a FACSCelesta, and data was analyzed using FlowJo v8.4.5.

[3] = target: T3, iAPOL1-G0 in podocytes (EIK variant, …); assay: flow cytometry, iAPOL1-G0 podocytes, 1 µg/ml
Procedure: APOL1 KO (black line) is completely negative, overlapping with Alexa488 anti-mouse secondary alone (grey line) as expected. A representative histogram from 3-4 experiments is shown.
Cells were harvested with 5 mM EDTA in PBS, washed once with growth media and twice with PBS. Approximately 0.5×10⁶/m1 of cells resuspended in PBS were incubated with anti-APOL1 antibodies for 1 h on ice. Following two PBS washes, 2 μg/ml of Alexa488 anti-mouse or anti-rabbit (Invitrogen A11029 and A21206, respectively) was used for 1 h on ice for detection. Cells were washed twice in PBS and resuspended in PBS with 1 μg/ml propidium iodide. Signals were read in a FACSCalibur3 (Becton Dickinson), with the exception of FIG. 8A and FIG. 14, which used a FACSCelesta, and data was analyzed using FlowJo v8.4.5. Mean fluorescence intensities were plotted in PRISM v7 after subtraction of secondary antibody alone background. For low pH experiments, cells were incubated with the antibodies in the presence of PBS pH 7.0 or PBS pH 5.5 for an hour on ice and detected with secondary antibodies at neutral pH.

Row | binding result [1] | binding result [2] | binding result [3] | Binder
1 | binds |  |  | antibody 4.12E5 (antibody, V domains shown, Mouse mAb, cloned as murine IgG2a LALAPG) VH: EVQLQQSGPELVKTGASVKISCKASGYSFTGYFMHWVKQSHGKSLEWIGYISCYNGASVYNQRFKGKATFTIDTSSSTAYMQFNSLTSEDSAVYYCARDVLRYPRYAVDYWGQGTSVTVSS VL: not shown
2 |  | no binding (tested: 5 µg/ml) | binds | antibody 3.7D6 (antibody, V domains shown, Mouse mAb, cloned as murine IgG2a LALAPG; those versions are not written separately; also called PFD antibody 3.7D6) VH: QIQLVQSGPDLKKPGETVKISCRTSGYAFTNYGVNWVKQAPGKGLKWMGWINTNTGQTTYAEEFRGRFAISLETSASTAFLTISNLKNEDSATYFCARLIYDGDYISSDFWGQGTTLTVSS VL: DIQMTQSPDSLSASVGETVTITCGASENIYGALNWYQRKQGKSPQLLIYGATNLADGMSSRFSGSRSGRQYSLKISSLHPDDVATYYCQNALSMPYTFGGGTKLEIKR
